According to publication PMC9482650, “Quantitative fragmentomics allow affinity mapping of interactomes” (Nature Communications, 2022):

Biological target: T1, PDZD7_3, Q9H5P4
T1 sequence (Q9H5P4 857-944, limits assumed, looked up): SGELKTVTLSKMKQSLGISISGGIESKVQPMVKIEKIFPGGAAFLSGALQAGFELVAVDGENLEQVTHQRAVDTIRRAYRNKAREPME
Experiment: holdup assay
Design: key: below the threshold = too weak to quantify, mostly under pKd 3.1 to 4
Details: plain residues with an end cap or a label only (N-terminal biotin on a linker: ado-ado)

Binder	pKd
GSGAVEMESV [AQP6, Q13520]	below the threshold
EKKTLIGIKL [GOT1L1, Q8NHS2]	below the threshold

Biological target: LIMK2, P53671
Experiment: holdup assay
Design: key: below the threshold = too weak to quantify, mostly under pKd 3.1 to 4
Details: plain residues with an end cap or a label only (N-terminal biotin on a linker: ado-ado)

Sequence of LIMK2, P53671 (P53671 143-248): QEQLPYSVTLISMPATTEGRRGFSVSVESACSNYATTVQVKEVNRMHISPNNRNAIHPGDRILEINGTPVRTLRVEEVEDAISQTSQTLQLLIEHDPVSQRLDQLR

Binder	pKd
GSGAVEMESV [AQP6, Q13520]	below the threshold
EKKTLIGIKL [GOT1L1, Q8NHS2]	below the threshold

Biological target: T2, MPDZ_12, O75970
T2 sequence (O75970 1857-1958, limits assumed, looked up): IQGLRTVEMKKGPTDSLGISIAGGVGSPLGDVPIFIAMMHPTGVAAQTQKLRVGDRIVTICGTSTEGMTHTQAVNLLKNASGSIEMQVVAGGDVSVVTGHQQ
Experiment: holdup assay
Design: key: below the threshold = too weak to quantify, mostly under pKd 3.1 to 4
Details: plain residues with an end cap or a label only (N-terminal biotin on a linker: ado-ado)

Binder	pKd
GSGAVEMESV [AQP6, Q13520]	below the threshold
EKKTLIGIKL [GOT1L1, Q8NHS2]	below the threshold

Biological target: T3, APBA2_1, Q99767
T3 sequence (Q99767 563-664, limits assumed, looked up): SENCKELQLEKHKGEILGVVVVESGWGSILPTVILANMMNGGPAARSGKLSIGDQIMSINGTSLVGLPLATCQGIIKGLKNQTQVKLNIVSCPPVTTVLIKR
Experiment: holdup assay
Design: key: below the threshold = too weak to quantify, mostly under pKd 3.1 to 4
Details: plain residues with an end cap or a label only (N-terminal biotin on a linker: ado-ado)

Binder	pKd
GSGAVEMESV [AQP6, Q13520]	below the threshold
EKKTLIGIKL [GOT1L1, Q8NHS2]	below the threshold

Biological target: Inadl_3, Q8NI35
Experiment: holdup assay
Design: key: below the threshold = too weak to quantify, mostly under pKd 3.1 to 4
Details: plain residues with an end cap or a label only (N-terminal biotin on a linker: ado-ado)

Sequence of Inadl_3, Q8NI35 (Q8NI35 359-469): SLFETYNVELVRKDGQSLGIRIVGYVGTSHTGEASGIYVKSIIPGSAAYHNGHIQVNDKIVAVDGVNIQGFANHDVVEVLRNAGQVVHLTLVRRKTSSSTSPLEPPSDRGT

Binder	pKd
GSGAVEMESV [AQP6, Q13520]	below the threshold
EKKTLIGIKL [GOT1L1, Q8NHS2]	below the threshold

Biological target: T4, SNTG1, Q9NSN8
T4 sequence (Q9NSN8 52-150, limits assumed, looked up): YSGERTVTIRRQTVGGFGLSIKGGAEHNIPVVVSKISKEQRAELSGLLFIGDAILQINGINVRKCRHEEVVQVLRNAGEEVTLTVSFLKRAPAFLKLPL
Experiment: holdup assay
Design: key: below the threshold = too weak to quantify, mostly under pKd 3.1 to 4
Details: plain residues with an end cap or a label only (N-terminal biotin on a linker: ado-ado)

Binder	pKd
GSGAVEMESV [AQP6, Q13520]	below the threshold
EKKTLIGIKL [GOT1L1, Q8NHS2]	below the threshold

Biological target: HTRA2, O43464
Experiment: holdup assay
Design: key: below the threshold = too weak to quantify, mostly under pKd 3.1 to 4
Details: plain residues with an end cap or a label only (N-terminal biotin on a linker: ado-ado)

Sequence of HTRA2, O43464 (O43464 355-458): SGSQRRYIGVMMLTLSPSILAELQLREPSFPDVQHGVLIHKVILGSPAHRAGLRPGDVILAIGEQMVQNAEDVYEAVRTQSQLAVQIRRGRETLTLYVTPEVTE

Binder	pKd
GSGAVEMESV [AQP6, Q13520]	below the threshold
EKKTLIGIKL [GOT1L1, Q8NHS2]	below the threshold

Biological target: T5, NHERF3_3, Q5T2W1
T5 sequence (Q5T2W1 238-333, limits assumed, looked up): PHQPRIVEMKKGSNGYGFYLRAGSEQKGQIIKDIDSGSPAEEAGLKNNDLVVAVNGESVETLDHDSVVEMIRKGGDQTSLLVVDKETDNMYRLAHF
Experiment: holdup assay
Design: key: below the threshold = too weak to quantify, mostly under pKd 3.1 to 4
Details: plain residues with an end cap or a label only (N-terminal biotin on a linker: ado-ado)

Binder	pKd
GSGAVEMESV [AQP6, Q13520]	below the threshold
EKKTLIGIKL [GOT1L1, Q8NHS2]	below the threshold

Biological target: T6, LNX2_2, Q8N448
T6 sequence (Q8N448 334-432, limits assumed, looked up): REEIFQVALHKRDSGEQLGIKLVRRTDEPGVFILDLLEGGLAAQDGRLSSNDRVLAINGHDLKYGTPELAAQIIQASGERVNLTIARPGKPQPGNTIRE
Experiment: holdup assay
Design: key: below the threshold = too weak to quantify, mostly under pKd 3.1 to 4
Details: plain residues with an end cap or a label only (N-terminal biotin on a linker: ado-ado)

Binder	pKd
GSGAVEMESV [AQP6, Q13520]	3.49
EKKTLIGIKL [GOT1L1, Q8NHS2]	below the threshold

Biological target: ARHGEF12, Q9NZN5-2
Experiment: holdup assay
Design: key: below the threshold = too weak to quantify, mostly under pKd 3.1 to 4
Details: plain residues with an end cap or a label only (N-terminal biotin on a linker: ado-ado)

Sequence of ARHGEF12, Q9NZN5-2 (Q9NZN5 other isoform, or with tags, fused parts or gaps): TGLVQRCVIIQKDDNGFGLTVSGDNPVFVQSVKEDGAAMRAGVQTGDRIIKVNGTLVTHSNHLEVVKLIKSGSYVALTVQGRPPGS

Binder	pKd
GSGAVEMESV [AQP6, Q13520]	below the threshold
EKKTLIGIKL [GOT1L1, Q8NHS2]	3.64

Biological target: T7, APBA1_2, Q02410
T7 sequence (Q02410 742-832, limits assumed, looked up): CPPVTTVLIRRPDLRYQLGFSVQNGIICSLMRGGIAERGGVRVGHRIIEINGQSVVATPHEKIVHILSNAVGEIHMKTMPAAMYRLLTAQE
Experiment: holdup assay
Design: key: below the threshold = too weak to quantify, mostly under pKd 3.1 to 4
Details: plain residues with an end cap or a label only (N-terminal biotin on a linker: ado-ado)

Binder	pKd
GSGAVEMESV [AQP6, Q13520]	3.58
EKKTLIGIKL [GOT1L1, Q8NHS2]	below the threshold

Biological target: T8, TIAM2, Q8IVF5
T8 sequence (Q8IVF5 885-986, limits assumed, looked up): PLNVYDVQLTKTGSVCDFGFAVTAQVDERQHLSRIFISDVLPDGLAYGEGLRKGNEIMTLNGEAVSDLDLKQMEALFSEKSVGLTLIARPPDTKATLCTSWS
Experiment: holdup assay
Design: key: below the threshold = too weak to quantify, mostly under pKd 3.1 to 4
Details: plain residues with an end cap or a label only (N-terminal biotin on a linker: ado-ado)

Binder	pKd
GSGAVEMESV [AQP6, Q13520]	below the threshold
EKKTLIGIKL [GOT1L1, Q8NHS2]	3.57

Biological target: SCRIB_1, Q14160
Experiment: holdup assay
Design: key: below the threshold = too weak to quantify, mostly under pKd 3.1 to 4
Details: plain residues with an end cap or a label only (N-terminal biotin on a linker: ado-ado)

Sequence of SCRIB_1, Q14160 (Q14160 718-814): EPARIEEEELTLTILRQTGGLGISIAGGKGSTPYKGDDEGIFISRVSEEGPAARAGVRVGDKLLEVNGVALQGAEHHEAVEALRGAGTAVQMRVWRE

Binder	pKd
GSGAVEMESV [AQP6, Q13520]	below the threshold
EKKTLIGIKL [GOT1L1, Q8NHS2]	below the threshold

Biological target: T9, DVL3, Q92997
T9 sequence (Q92997 244-331, limits assumed, looked up): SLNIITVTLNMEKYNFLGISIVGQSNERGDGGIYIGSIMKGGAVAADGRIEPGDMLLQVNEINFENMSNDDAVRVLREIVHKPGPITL
Experiment: holdup assay
Design: key: below the threshold = too weak to quantify, mostly under pKd 3.1 to 4
Details: plain residues with an end cap or a label only (N-terminal biotin on a linker: ado-ado)

Binder	pKd
GSGAVEMESV [AQP6, Q13520]	below the threshold
EKKTLIGIKL [GOT1L1, Q8NHS2]	below the threshold

Biological target: GRIP2_3, Q9C0E4
Experiment: holdup assay
Design: key: below the threshold = too weak to quantify, mostly under pKd 3.1 to 4
Details: plain residues with an end cap or a label only (N-terminal biotin on a linker: ado-ado)

Sequence of GRIP2_3, Q9C0E4 (Q9C0E4 238-339): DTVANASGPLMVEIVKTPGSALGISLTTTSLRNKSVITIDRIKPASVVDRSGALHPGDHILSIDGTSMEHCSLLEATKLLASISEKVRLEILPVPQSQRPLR

Binder	pKd
GSGAVEMESV [AQP6, Q13520]	below the threshold
EKKTLIGIKL [GOT1L1, Q8NHS2]	below the threshold

Biological target: T10, HTRA4, P83105
T10 sequence (P83105 378-476, limits assumed, looked up): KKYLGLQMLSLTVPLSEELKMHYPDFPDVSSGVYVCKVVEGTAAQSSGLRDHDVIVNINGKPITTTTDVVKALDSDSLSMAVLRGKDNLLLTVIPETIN
Experiment: holdup assay
Design: key: below the threshold = too weak to quantify, mostly under pKd 3.1 to 4
Details: plain residues with an end cap or a label only (N-terminal biotin on a linker: ado-ado)

Binder	pKd
GSGAVEMESV [AQP6, Q13520]	3.88
EKKTLIGIKL [GOT1L1, Q8NHS2]	below the threshold

Biological target: T11, GRIP1_7, Q9Y3R0
T11 sequence (Q9Y3R0 999-1096, limits assumed, looked up): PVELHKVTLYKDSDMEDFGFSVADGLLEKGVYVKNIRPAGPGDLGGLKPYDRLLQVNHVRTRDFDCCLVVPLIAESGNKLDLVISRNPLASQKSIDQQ
Experiment: holdup assay
Design: key: below the threshold = too weak to quantify, mostly under pKd 3.1 to 4
Details: plain residues with an end cap or a label only (N-terminal biotin on a linker: ado-ado)

Binder	pKd
GSGAVEMESV [AQP6, Q13520]	below the threshold
EKKTLIGIKL [GOT1L1, Q8NHS2]	below the threshold

Biological target: T12, ARHGEF11, O15085
T12 sequence (O15085 42-136, limits assumed, looked up): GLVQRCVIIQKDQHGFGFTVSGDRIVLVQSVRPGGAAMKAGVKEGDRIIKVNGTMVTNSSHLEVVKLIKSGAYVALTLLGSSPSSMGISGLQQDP
Experiment: holdup assay
Design: key: below the threshold = too weak to quantify, mostly under pKd 3.1 to 4
Details: plain residues with an end cap or a label only (N-terminal biotin on a linker: ado-ado)

Binder	pKd
GSGAVEMESV [AQP6, Q13520]	below the threshold
EKKTLIGIKL [GOT1L1, Q8NHS2]	below the threshold

Biological target: MAST2, Q6P0Q8
Experiment: holdup assay
Design: key: below the threshold = too weak to quantify, mostly under pKd 3.1 to 4
Details: plain residues with an end cap or a label only (N-terminal biotin on a linker: ado-ado)

Sequence of MAST2, Q6P0Q8 (Q6P0Q8 1099-1202): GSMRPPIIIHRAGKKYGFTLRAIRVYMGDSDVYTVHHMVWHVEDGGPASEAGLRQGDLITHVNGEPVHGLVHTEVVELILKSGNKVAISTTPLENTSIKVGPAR

Binder	pKd
GSGAVEMESV [AQP6, Q13520]	4.03
EKKTLIGIKL [GOT1L1, Q8NHS2]	4.66

Biological target: DLG5_1, Q8TDM6
Experiment: holdup assay
Design: key: below the threshold = too weak to quantify, mostly under pKd 3.1 to 4
Details: plain residues with an end cap or a label only (N-terminal biotin on a linker: ado-ado)

Sequence of DLG5_1, Q8TDM6 (Q8TDM6 617-713): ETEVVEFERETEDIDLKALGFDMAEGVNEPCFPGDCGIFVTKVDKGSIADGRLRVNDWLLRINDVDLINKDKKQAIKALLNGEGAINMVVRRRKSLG

Binder	pKd
GSGAVEMESV [AQP6, Q13520]	below the threshold
EKKTLIGIKL [GOT1L1, Q8NHS2]	below the threshold

Biological target: GOPC, Q9HD26
Experiment: holdup assay
Design: key: below the threshold = too weak to quantify, mostly under pKd 3.1 to 4
Details: plain residues with an end cap or a label only (N-terminal biotin on a linker: ado-ado)

Binder	pKd
GSGAVEMESV [AQP6, Q13520]	below the threshold
EKKTLIGIKL [GOT1L1, Q8NHS2]	below the threshold

Biological target: TJP1_2, Q07157
Experiment: holdup assay
Design: key: below the threshold = too weak to quantify, mostly under pKd 3.1 to 4
Details: plain residues with an end cap or a label only (N-terminal biotin on a linker: ado-ado)

Sequence of TJP1_2, Q07157 (Q07157 181-274): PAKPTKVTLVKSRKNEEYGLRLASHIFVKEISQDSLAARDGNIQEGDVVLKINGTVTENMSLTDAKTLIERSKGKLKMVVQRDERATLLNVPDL

Binder	pKd
GSGAVEMESV [AQP6, Q13520]	below the threshold
EKKTLIGIKL [GOT1L1, Q8NHS2]	below the threshold

Biological target: T13, MPP2, Q14168
T13 sequence (Q14168 180-250, limits assumed, looked up): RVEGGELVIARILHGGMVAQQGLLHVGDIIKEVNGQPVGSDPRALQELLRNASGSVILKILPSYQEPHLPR
Experiment: holdup assay
Design: key: below the threshold = too weak to quantify, mostly under pKd 3.1 to 4
Details: plain residues with an end cap or a label only (N-terminal biotin on a linker: ado-ado)

Binder	pKd
GSGAVEMESV [AQP6, Q13520]	below the threshold
EKKTLIGIKL [GOT1L1, Q8NHS2]	below the threshold

Biological target: T14, MPP7, Q5T2T1
T14 sequence (Q5T2T1 134-230, limits assumed, looked up): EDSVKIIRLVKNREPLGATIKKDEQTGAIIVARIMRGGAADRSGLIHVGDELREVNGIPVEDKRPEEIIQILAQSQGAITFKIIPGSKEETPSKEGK
Experiment: holdup assay
Design: key: below the threshold = too weak to quantify, mostly under pKd 3.1 to 4
Details: plain residues with an end cap or a label only (N-terminal biotin on a linker: ado-ado)

Binder	pKd
GSGAVEMESV [AQP6, Q13520]	below the threshold
EKKTLIGIKL [GOT1L1, Q8NHS2]	below the threshold
